In patent JP2015180626A (dated 2015):

Target: RSV Fタンパク質 (RSV A2ウイルス) (respiratory syncytial virus (RSV) A2, UniProt P03420 26-574)
Assay: cell-based or functional assay

Sequence of RSV Fタンパク質 (RSV A2ウイルス) (P03420 26-574): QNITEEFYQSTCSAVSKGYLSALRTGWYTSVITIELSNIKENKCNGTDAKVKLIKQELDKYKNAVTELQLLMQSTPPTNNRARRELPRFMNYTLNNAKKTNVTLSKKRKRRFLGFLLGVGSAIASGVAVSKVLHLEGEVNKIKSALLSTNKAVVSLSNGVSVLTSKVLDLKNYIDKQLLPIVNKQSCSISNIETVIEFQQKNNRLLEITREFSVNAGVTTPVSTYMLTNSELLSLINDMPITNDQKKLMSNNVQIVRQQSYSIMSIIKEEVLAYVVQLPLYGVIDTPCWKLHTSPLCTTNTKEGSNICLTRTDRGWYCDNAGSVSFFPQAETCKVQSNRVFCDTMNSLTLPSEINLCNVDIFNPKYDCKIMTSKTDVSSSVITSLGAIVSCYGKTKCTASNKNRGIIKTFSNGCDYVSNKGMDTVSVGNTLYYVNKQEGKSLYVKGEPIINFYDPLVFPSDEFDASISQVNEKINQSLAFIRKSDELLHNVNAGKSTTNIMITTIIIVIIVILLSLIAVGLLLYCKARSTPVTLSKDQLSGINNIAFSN

B1: AM22 (antibody, V domains shown)
VH: QVQLVQSGAEVKKPGATVKVSCKISGHTLIKLSIHWVRQAPGKGLEWMGGYEGEVDEIFYAQKFQHRLTVIADTATDTVYMELGRLTSDDTAVYFCGTLGVTVTEAGLGIDDYWGQGTLVTVSS
VL: EIVLTQSPGTLSLSPGERATLSCRASQIVSRNHLAWYQQKPGQAPRLLIFGASSRATGIPVRFSGSGSGTDFTLTINGLAPEDFAVYYCLSSDSSIFTFGPGTKVDFK
RSV-A2ウイルスに対する中央値半分最大阻害濃度(IC 50 ) (neutralisation of RSV A2 on HEp2 cells): 1.15 ng/mL
